From US20160136231A1 (ROGNE BIOSCIENCE, published 2016)

What was measured:
Test in all cases: cell-based or functional assay
[1] = biological target: human ChemR23 (CMKLR1), PathHunter β-Arrestin CHO cell line (human, UniProt Q99788 1-373)
[2] = biological target: T1, GPR1, PathHunter β-Arrestin CHO cell line (human, UniProt P46091 1-355)
T1 sequence (P46091 whole entry, species assumed, looked up): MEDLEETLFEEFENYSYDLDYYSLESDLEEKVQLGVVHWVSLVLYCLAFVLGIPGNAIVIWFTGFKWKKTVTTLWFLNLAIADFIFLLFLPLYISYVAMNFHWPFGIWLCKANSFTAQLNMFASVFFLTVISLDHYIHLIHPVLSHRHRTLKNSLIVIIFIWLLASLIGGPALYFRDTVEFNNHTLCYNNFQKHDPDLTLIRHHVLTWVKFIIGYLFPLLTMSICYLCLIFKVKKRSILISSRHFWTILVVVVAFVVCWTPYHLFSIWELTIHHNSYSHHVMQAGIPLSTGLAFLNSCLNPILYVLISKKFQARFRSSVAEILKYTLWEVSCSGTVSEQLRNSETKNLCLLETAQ

[3] = biological target: T2, human ChemR23, cAMP Hunter cell line (human, UniProt Q99788 1-373)
T2 sequence (looked up): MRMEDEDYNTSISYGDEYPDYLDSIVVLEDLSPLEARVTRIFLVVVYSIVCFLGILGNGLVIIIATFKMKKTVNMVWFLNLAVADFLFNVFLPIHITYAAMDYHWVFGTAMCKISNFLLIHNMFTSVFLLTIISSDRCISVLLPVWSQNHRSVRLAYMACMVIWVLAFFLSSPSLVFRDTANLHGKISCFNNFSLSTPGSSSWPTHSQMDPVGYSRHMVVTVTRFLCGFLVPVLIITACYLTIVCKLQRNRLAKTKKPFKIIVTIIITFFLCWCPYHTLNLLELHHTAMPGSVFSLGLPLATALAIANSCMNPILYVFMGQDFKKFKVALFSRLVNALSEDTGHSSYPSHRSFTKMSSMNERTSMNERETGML

[4] = biological target: T3, mouse ChemR23, PathHunter β-Arrestin cell line (mouse, UniProt P97468 1-371)
T3 sequence (P97468 whole entry, looked up): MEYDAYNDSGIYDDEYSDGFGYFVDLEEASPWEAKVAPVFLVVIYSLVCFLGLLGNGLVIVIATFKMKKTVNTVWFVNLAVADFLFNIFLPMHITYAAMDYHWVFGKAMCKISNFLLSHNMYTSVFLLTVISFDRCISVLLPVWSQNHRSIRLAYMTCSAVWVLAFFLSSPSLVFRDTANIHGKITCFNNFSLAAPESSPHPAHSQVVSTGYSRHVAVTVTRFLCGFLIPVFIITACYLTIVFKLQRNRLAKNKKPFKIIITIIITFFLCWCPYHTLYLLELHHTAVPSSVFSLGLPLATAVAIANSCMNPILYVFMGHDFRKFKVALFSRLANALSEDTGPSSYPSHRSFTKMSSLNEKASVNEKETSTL

## AGEDPHSFYFPGQFA [human chemerin C15 peptide]
[1]
  % Max Activity, PathHunter β-Arrestin agonist: 0.8%
  % Max Inhibition, PathHunter β-Arrestin antagonist against chemerin at EC80: 0%
  [EC50] (M), PathHunter β-Arrestin agonist: > 1e-05 M
  [IC50] (M), PathHunter β-Arrestin antagonist against chemerin at EC80: > 1e-05 M
[2]
  % Max Activity, PathHunter β-Arrestin agonist: 10.6%
  % Max Inhibition, PathHunter β-Arrestin antagonist against chemerin at EC80: 0%
  [EC50] (M), PathHunter β-Arrestin agonist: 0.017 M
  [IC50] (M), PathHunter β-Arrestin antagonist against chemerin at EC80: > 1e-05 M
[3]
  IC50, cAMP, Antagonist (RC50, uM): > 10 µM
[4]
  EC50, Arrestin, Agonist (RC50, uM): > 10 µM
  IC50, Arrestin, Antagonist (RC50, uM): 9.66 µM

## AGEDPHSFYFPGQFAF [human chemerin C16 peptide]
[1]
  % Max Activity, PathHunter β-Arrestin agonist: 98.6%
  % Max Inhibition, PathHunter β-Arrestin antagonist against chemerin at EC80: 0%
  [EC50] (M), PathHunter β-Arrestin agonist: 2.9e-08 M
  [IC50] (M), PathHunter β-Arrestin antagonist against chemerin at EC80: > 1e-05 M
[2]
  % Max Activity, PathHunter β-Arrestin agonist: 87.9%
  % Max Inhibition, PathHunter β-Arrestin antagonist against chemerin at EC80: 0%
  [EC50] (M), PathHunter β-Arrestin agonist: 2.1e-09 M
  [IC50] (M), PathHunter β-Arrestin antagonist against chemerin at EC80: > 1e-05 M
[3]
  IC50, cAMP, Antagonist (RC50, uM): > 10 µM
[4]
  EC50, Arrestin, Agonist (RC50, uM): 0.0385 µM
  IC50, Arrestin, Antagonist (RC50, uM): > 10 µM

## AGEDPHSFYFPGQFAFS [human chemerin C17 peptide]
[1]
  % Max Activity, PathHunter β-Arrestin agonist: 67.5%
  % Max Inhibition, PathHunter β-Arrestin antagonist against chemerin at EC80: 0%
  [EC50] (M), PathHunter β-Arrestin agonist: 4.8e-07 M
  [IC50] (M), PathHunter β-Arrestin antagonist against chemerin at EC80: > 1e-05 M
[2]
  % Max Activity, PathHunter β-Arrestin agonist: 80.9%
  % Max Inhibition, PathHunter β-Arrestin antagonist against chemerin at EC80: 0%
  [EC50] (M), PathHunter β-Arrestin agonist: 1.5e-09 M
  [IC50] (M), PathHunter β-Arrestin antagonist against chemerin at EC80: > 1e-05 M
[3]
  IC50, cAMP, Antagonist (RC50, uM): > 10 µM
[4]
  EC50, Arrestin, Agonist (RC50, uM): 0.84 µM
  IC50, Arrestin, Antagonist (RC50, uM): > 10 µM

## AGEDPHGYFLPGQFA [mouse chemerin C15 peptide]
[1]
  % Max Activity, PathHunter β-Arrestin agonist: 0.4%
  % Max Inhibition, PathHunter β-Arrestin antagonist against chemerin at EC80: 0%
  [EC50] (M), PathHunter β-Arrestin agonist: > 1e-05 M
  [IC50] (M), PathHunter β-Arrestin antagonist against chemerin at EC80: > 1e-05 M
[2]
  % Max Activity, PathHunter β-Arrestin agonist: 27.8%
  % Max Inhibition, PathHunter β-Arrestin antagonist against chemerin at EC80: 0%
  [EC50] (M), PathHunter β-Arrestin agonist: 3.7e-06 M
  [IC50] (M), PathHunter β-Arrestin antagonist against chemerin at EC80: > 1e-05 M
[3]
  IC50, cAMP, Antagonist (RC50, uM): > 10 µM
[4]
  EC50, Arrestin, Agonist (RC50, uM): > 10 µM
  IC50, Arrestin, Antagonist (RC50, uM): > 10 µM
